Measured values published in the nanobody polyreactivity screen of Harvey et al. (2022).

Assay: yeast display, Sf9 membrane polyspecificity reagent, FACS + sequencing; frameworks hold sequencing errors
Outline: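 In a synthetic yeast display library (Saccharomyces cerevisiae BJ5465), nanobody expression was induced with galactose for 36–48 hours. FACS gates were set low and high (top ~1%) using anti-HA fluorescence for expression and streptavidin fluorescence for binding of the Sf9 membrane reagent. Each polyreactivity label is drawn from the gate of origin.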

| Sequence | polyreactivity (PSR sort gate) |
| --- | --- |
| QVQLVESGGGLVQAGGSLRLSCAASGSISDWNAMGWYRQAPGKERELVAAINWSGDTTYYADSVKGRFTISRDTAKNTVYLQMNSLKPEDTAVYYCAADLVVDYEWYDYWGQGTQVTVSS | high polyreactivity |
| QVQLVVSGGGLVQAGGSLRLSCAASGFIFGYYAMGWYRQAPGNERALDAAITGRGGSTNYADSVKGRFTISRDNAKNTVYLQMNSLKPEDTAVYYCAKRWRSYSRGGDYWGQGTQVTVSS | high polyreactivity |
| QVQLVESGGGLVQAGGSLRLSCAASGRTFKRYAMGWYRQAPGKERELVAAIRQRGGSTYYADSVMGRFTISRDNAKNTVYLQMNSLKPEDTAVYYCAAVIPRPYSVGFDYWGQGTQVTVSS | high polyreactivity |
| QVQLGETRGGLVQAGGSLRLSCAASASIFAPYAMGGYRQAPGKERELVAAITWSGDSTYYADSVKGRFTISRDNAKYTVYLQMNSLKPEDTAVYYCATEEVYGQGNYWGQGTQVTVSS | low polyreactivity |
| QVQLVESGGGLVQAGGILRLSCAASGRSFDRNAMGWYRQAPGKERELVATISSGDTTDYADSVKGRFTISRDNATNTVYLQMNSLKPEDTAGYYITIYNYWGQGTQVTVSS | low polyreactivity |
| QVQLVESGRGLVQAGGSLRLSCAASGIIFVSYMGWYRQAPGKERELVAAIRWSGGRTYYADSVKGRFTISRDNAKNTVYLQMNSLNPVDTAVYYCAADALRKPKIALYDYWGQGTQVTVSS | high polyreactivity |
| QVQLVESGGGLVQAGGSLRLSCAASGRIFGKYAMGWYRQAPGKERELVAVITSRDGRTYYADSVKGRFTISRDNAKNTVYLQMNSLIPEDTAVYYCAADYWTGITPDAIGDYWGQGTQVTVSS | low polyreactivity |
| QVQLEESGGGLVQAGGSLRLSCAASVFTFSRYAMGWYRQAHGKVREIVAAISYRGGSTYADSVKGRFTISRDNAKNTVYLQMNSLKPEDTAVYYCAALRWGTDVWRRRIGSLLMGYSGQGTQVTVSS | high polyreactivity |
| QVQLVESGGGLVQAGGSLRLSCAASGFILYRYAMGWDRQAPGKDRELVAAITRRGGSTYYADSVKGRFTISRDNAKNTVYLQMNSLKPEDTAVYYCNADIGVYGTSDLDYWGQGTQVTLSS | high polyreactivity |
| QVQLVESGGGLVQAGGSLRLSCAASGFIFFRYAMGWYRQAPGKERELVATITSSGRTNYADSVKGRFTISRDNAKNTVYLQMNSLKPEDTAVYYCAAQRTGARRYRYDSWGQGTQVTVSS | high polyreactivity |
| QVQLVESGGGLVQAGGSLRLSCAASGRTFSHYAMGWYRQAPGKERELVAAINTRTGTTYYADSVKGRFTISRDNAKNTVYLQMNSLKPEDTAVYYCNAVPYYSYQGWILVGDYDYWGQGTQVTVSS | low polyreactivity |
| QVHLVESGGGLVQAGGSLRLSCAASGFTFGWNAMGWYRQAPGKERELVASINSGGSTYNADSVKGRFTISRDNAKNTVYLEMNFLKPEDTAVYYCATAPYVTSRRYGPYEYWGQGSQVTVSS | low polyreactivity |
| QVQLVESGGGLVQAGGSLRLSCAASGSTFGINTMGWYRQAPGKERELVATISQRGTRTYYADSVKGRFTISRDNAKNTVYLQMNSLKPEDTAVYYCNKDVYLYYYTRRSGRLDYWGQGTQVTVSS | high polyreactivity |
| QDQLVESGGCLVQAGGSLRLSCAASGSTFGYNVMGRYRQAPGKERELVAAISSSGGSTYYADSVKGRFSISRDNAKNTVYLQMNSLKPEDTAVYYCARSTYPYRYGYWGQGTQVTVSS | high polyreactivity |
| QVQLVESGGGLVQAGGSLRLSCAASGFTFSYYDMGWYRQAPGKERELVAAISSSASRTYYADSVKGRFTISRDNAKNTVYLQMNSLKPEDTAVYYCAARYSESRTGHLDYWGQGTQVTVSS | high polyreactivity |
| QVQLVESGGLLVQAGGSLRLSCAASGRISPKNAMGWYRQAPGKERELVATIRKIGGRTYYADSVKGRFTISRDNAKNTVYLQMNSLKTEDTAVYYCATDFAPSYYPDRFDYWGQGTQVTVSS | low polyreactivity |
| HVQLVESGGGLVQAGGSLRLSCAASGSTFYNYAMGWYRQAPGNERELVAGISSGVTTNYADSVKGRYTISRDNAKNTVYLQMNSLKPEDTAVYYCAAVHSWYARYLGGEDYDYWGQGTQVTVSS | low polyreactivity |
| QVQLVESGGGLVQAGGSLRLSCAASGRTFYDYAMGWYRQAPGKEREFVARITYSGGGTYYADSVKGRFTISRDNAKNTVYLQMNSLKPEDTAVYYCARPFIRYLGLTRNGYTSDYWGQGTQVTVSS | high polyreactivity |
| QVQLEDSGGGLVQAGGSLRLSCAASGRTFRSNVMGWYRQAPGKERELVAAISKRGGSTFSADSVKGRFTISRDNAKNTVYLQMNSLKPEDTEVYYCAKDTPVYDYGTVYPDDYWGQGTQVTVSS | high polyreactivity |
| QVQLVESGGGLVQAGGSLRLSCAASGRIFGGYAMGWYRQAPGKERELVAAITFRSGTTYYADSVKGRFTISRDNAKNTVYLQMNSLKPEDTAVYYCAARWGPYAFTYVRTYDYWGQGTQVTVSS | low polyreactivity |
| QVQLVESGGGLVQAGGSLRLSCAASGFTFLYGMGWYRQAPGEERELVAAISNTGGSTYYADSVKGRFTISRDNAKNTVYLQMNSLKPEDTAVYYCAADGGQWWVFYALDFWGQGTQVTVSS | low polyreactivity |
| QVQLVESGGGLVQAGGSLRLSCAASGSTFTTNAMGWYRQAPGKERELVASITWSGGGTNYADSVKGRFTISRDNAKNSVFLQMNSLKPEDTAVYSCADDYDDSHLRSDYWGQGTQVTVSS | low polyreactivity |

| Sequence | polyreactivity (PSR sort gate) |
| --- | --- |
| QVQLEESGGGLVQAGGSLRVSCAPSGRTFGWYTMGWYRQAPGKERELVAVISSTGGRTYYADSVKGRFTISRDNAKNTVYLQMNSLKPEDTAVYYCAAEYVSAKWESGYWGQGTQVTVSS | low polyreactivity |
| QDQLVESGGGLVQAGGSLRLSCAASGRTFWVYAKGWYRQAPGKERELVAGISWDDGSTYYADSVKGRFTISRDNAKNTVYLQMNSLKPEDTAVYYCAADAYFIFYISYEYWGQGTQVTVSS | low polyreactivity |
| QVQLVESGGGLVQAGGSLRLSCAASGSTFAQNAMGWYRQEPGKERELVAAISRRGGSTYYADSVKGRFTISRDNAKNTVYLQMISLKPEDTAVYYCAADQPVRQLHRDDYWGQGTQVTVSS | low polyreactivity |
| QVQLVESGGGLVQAGGSLRLSWAASGITFRYYAMGWYRHAPGKERELVAAITSGGSTYYADSVKGRFTISRDNAKNTVYLQMNSLKPEDTAVYYCAAKYTLGVSRHPPVKKFYYWGQGTQVTVSS | high polyreactivity |
| QVQLVESGGGLVQAGGILRLSCAASGFTFGRYAMGRSRQAPGKEREFVAAISYTGTSTYYADSVKGRFTISRDNAKNTVYLQMNSRNPEDTAVYYCNAKWRSHYTQWSYDYWGQCTQVTVSS | high polyreactivity |
| QVQLVESGGGLVQAGGSLRLSCAASGIIFGTYAMGWYRQAPGKERELVAAISSGGRTYYADSVKGRFTISRDNAKNTVYLQMNSLKPEDTAVYYCNRPPWSRGSNYWGQGTQVTVSS | high polyreactivity |
| QVHLHETGGGLVQAGGSLRLSCAASGTISVTYNMGWYRQAPGKEREFVAGNSTGATTNYADSVKGRFTISRDNANNTVYLQMNSLKPEDTAVYYCAAHIYRKDHFYYWGQGTQVTVSS | low polyreactivity |
| QVQLVQSGGGLVQAGGSLRLSCAASGRIFKYNAMGWYRQAPGKERDLVAVITSGGSTYYADSVKGRFTISRDNAKNTFYLQMNSQKPEDTAVYSCAKKYYKVHKFDYWGQGTQVTVSS | low polyreactivity |
| QVQLVESGGGLVQAGGSLRLSCAASGRIFRYKAMGGYRQAPGKEREFVAAISSSGGSTFYADSVKGRFTISRDNAKNTVYLQMNSLIPEDTAAYYCAADDAGFWYYYYGRYVTFDYWGQGTQVTVSS | low polyreactivity |
| QDQHVESGGGLVQAGGSLRLSCAASRRTIDLYAMGWYRQAPGKERELVAAITKGGGSTYYADSVKGRFTISRDNATNTVYLQMNSLKPEDTAVFYCAARKYKRIYRISSGIGYYWGQGTQVTVSS | high polyreactivity |
| QVQLVESGGGLVQAGGSLRLSSAASGFTLYYYTMGWYRQAPGKERELVAAITSGGDTYYADSVKGRFTISRDNAKNTVYLHMHSLKPEDTAVYYCAADYGTQYGEYTYYDYDYWGKGTQVTVSS | low polyreactivity |
| QVQLVESGGGLVQAGGSLRLSCAASGSTLWRSAMGWYRQAPGKERELVAGISRGGGSTYYADSVKGRFTISRDNAKNTVYLQMHSLKPEDTAVYYCATPVYQVRGAFDYWGQGTQVTVSS | low polyreactivity |
| QVQLVESGGGLVQAGGSLRLSSAASGRTFRPNAMGGYRQAPGKERELVAGITRGGSTKYADSVKGRFTISRDNSKNTVYLQMNSLKPEDTAVYYCAVERGSYSYDRPFYYCGQGTQVTVSS | high polyreactivity |
| QVQLVESGGGLVQAGGSLRLSCAASGRTFYIYAMGWYRQAPAKERELVAAITWSRGSSTYYADSVKGRFTISRDNAKNTVYLQMNSLKPEDTAVYYCAAETHYYWYEQYDYCGQGTQVTVSS | high polyreactivity |
| QVQLVESGGGLVQAGGSLRLSCAASGITFYIKAMGWYRQAPGKERELVAVIDSRGSSTFYADSVKGRFTISRDNAKNTVYLQMNSLKPEDTAVYYCAVEGYPGRYRDPGDLYYYWGQGTQVTLSS | low polyreactivity |
| QVQLVESGGGLVQAGGSLRLSCAASGSIFKYYSMGWYRQAPGKERELVAAITIGGNTNYADSVKGRFTISRDNAKNTVYLQLNSLKPEDTAVYYCATGGYYSAIVYGGYDYWGQGTQVTVSS | low polyreactivity |
| QVQLVESGGGLVQAGGSLRLSCAASGNIFYLYAMGWYRQAPGKEREFSTSYADSVKGRFTISRDNAKNTVYLQMNSLKPEDTAVYYCAAYKSRGPYYYLFDYWGQGTQVTVSS | low polyreactivity |
| QLQLVESGGGLVQAGGSLRLSCAASGRIFYVNAMGWYRQAPGKERELVASITDGSSTYYADSVKGRFTISRDNAKNTVYLQMNILKPEDTAVYYCAVRAAYWGAHYYYWGQGTQVTVSS | high polyreactivity |
| QVQLVESGGGLVQAGGSLRLSCAASGFTFYGYGMGWYRQAPGKERELVAVITSGGSTKYADSVKGRFTISRDNAKNTVDLQMNSLKPEDTAVYYCNVVGGRYLYSAYDYWGQGTQVTVSS | low polyreactivity |
| QVQLVESGGGLVQAGGSLRLSFGASGLNFGWYAMGWYRKAPGKERELVAAITYDGDSTYYADSVKGRFTISRDNAKNTVYFQMNSLKPEDTAFYYCAGEYGYGEMDSWGQGTQVTVTS | high polyreactivity |
| QVQLVESGGGLVQAGGSLRLSCAASGSTFGNNAMGWYRQAPGKERELVASINWNGGSTYYADSVKGRFTISRDNAKNTVYLQMNSLKPEDTAVYYCADDRVWAYWTYGYWGQGTQVTVSS | low polyreactivity |
